One block for each binder: values may come before it.
Molecular target: T1, G93A-hSOD1-CFP (human, UniProt P00441 2-154, G93A)
T1 construct: Transiently expressed in NSC-34 cells; FRET donor; also called G93A SOD1-CFP; pECFP-G93A-hSOD1; not shown: CFP (from pECFP plasmid) attached to the C-terminus of SOD1
Experiment: FACS sorting of cells without G93A SOD1-CFP/MDH1-YFP FRET after transfection of the myc-tagged MDH1 peptide library

T1 sequence (P00441 2-154 G94A): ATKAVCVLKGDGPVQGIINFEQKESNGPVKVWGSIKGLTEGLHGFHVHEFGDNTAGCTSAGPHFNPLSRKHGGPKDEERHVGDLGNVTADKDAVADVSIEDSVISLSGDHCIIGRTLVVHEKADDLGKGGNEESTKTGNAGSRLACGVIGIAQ

- binding result: binds
B1: myc-tagged peptide 217-239 of cytMDH (peptide)
peptide: SWLKGEFITTVQQRGAAVIKARK
notes: Expressed from a plasmid inside NSC-34 cells; not shown: human myc tag in frame with the peptide

- binding result: binds
B2: myc-tagged peptide 14-27 of cytMDH (peptide)
peptide: GQIAHSLLYSIGNG
notes: Expressed from a plasmid inside NSC-34 cells; also called myc-tagged 14-27 peptide; not shown: human myc tag in frame with the peptide
